Starred links: 1 amine or outer side, 2 acyl side, 3 side chain; linkers in the order of their positions; H or OH if unused. Positions of bridges follow the written chain, without caps; N, C: chain ends. Non-standard residues stand in square brackets, D forms with d. *: point of attachment. dPhe(4-phenylureido) = D-4-(phenylureido)Phe, O=C(Nc1ccccc1)Nc1ccc(C[C@@H](N[*:1])C(=O)[*:2])cc1; thiocarbamate = -NH-(C=O)-S- bridge between side chains (disulfide isostere); dPhe(4-CONH2) = NC(=O)c1ccc(C[C@@H](N)C(=O)O)cc1; Phe(4-Cl) = N[C@@H](Cc1ccc(Cl)cc1)C(=O)O; dDap = NC[C@@H](N)C(=O)O; Dap = NC[C@H](N)C(=O)O; Hexanoyl = CCCCCC(=O)*
B1: Compound 61: H-Cpa-cyclo[Dap-Tyr-DPhe(4-CONH2)-Lys-Thr-Cys]-DTyr-NH2 (peptide)
peptide: H-[Phe(4-Cl)][Dap]Y[dPhe(4-CONH2)]KTC[dY]-NH2
modifications: bridge 2-7 via thiocarbamate
B2: Compound 55: Ac-Gly-Cpa-cyclo[D-Cys-Tyr-D-Phe(4-carbamoyl)-Lys(Nε-Me)-Thr-Cys]-D-Tyr-NH2 (peptide)
peptide: Ac-G[Phe(4-Cl)][dC]Y[dPhe(4-CONH2)]K(Me)TC[dY]-NH2
modifications: disulfide 3-8
SMILES: CNCCCC[C@@H]1NC(=O)[C@@H](Cc2ccc(C(N)=O)cc2)NC(=O)[C@H](Cc2ccc(O)cc2)NC(=O)[C@H](NC(=O)[C@H](Cc2ccc(Cl)cc2)NC(=O)CNC(C)=O)CSSC[C@@H](C(=O)N[C@H](Cc2ccc(O)cc2)C(N)=O)NC(=O)[C@H]([C@@H](C)O)NC1=O
B3: Compound 62: H-Cpa-cyclo[DCys-Tyr-DPhe(4-CONH2)-Lys-Thr-Dap]-DTyr-NH2 (peptide)
peptide: H-[Phe(4-Cl)][dC]Y[dPhe(4-CONH2)]KT[Dap][dY]-NH2
modifications: bridge 2-7 via thiocarbamate
B4: Compound 56: CH3(CH2)4(CO)-Cpa-cyclo[D-Cys-Tyr-D-Phe(4-carbamoyl)-Lys(Nε-Me)-Thr-Cys]-D-Tyr-NH2 (peptide)
peptide: Hexanoyl-[Phe(4-Cl)][dC]Y[dPhe(4-CONH2)]K(Me)TC[dY]-NH2
modifications: disulfide 2-7
SMILES: CCCCCC(=O)N[C@@H](Cc1ccc(Cl)cc1)C(=O)N[C@@H]1CSSC[C@@H](C(=O)N[C@H](Cc2ccc(O)cc2)C(N)=O)NC(=O)[C@H]([C@@H](C)O)NC(=O)[C@H](CCCCNC)NC(=O)[C@@H](Cc2ccc(C(N)=O)cc2)NC(=O)[C@H](Cc2ccc(O)cc2)NC1=O
B5: Compound 63: H-Cpa-cyclo[DCys-Tyr-DPhe(4-CONH2)-Lys(Me)-Thr-Dap]-DTyr-NH2 (peptide)
peptide: H-[Phe(4-Cl)][dC]Y[dPhe(4-CONH2)]K(Me)T[Dap][dY]-NH2
modifications: bridge 2-7 via thiocarbamate
B6: Compound 72: H-Cpa-cyclo[DCys-Tyr-D-(4-carbamoyl)Phe-(N-alpha-Me)Lys-Thr-Cys]-DTyr-NH2 (peptide)
peptide: XXYXXTCX
HELM: PEPTIDE1{[N[C@@H](Cc1ccc(Cl)cc1)C(=O)[*:2]].[dC].Y.[NC(=O)c1ccc(C[C@@H](N[*:1])C(=O)[*:2])cc1].[meK].T.C.[dY].[am]}$PEPTIDE1,PEPTIDE1,2:R3-7:R3$$$V2.0
SMILES: C[C@@H](O)[C@@H]1NC(=O)[C@H](CCCCN)N(C)C(=O)[C@@H](Cc2ccc(C(N)=O)cc2)NC(=O)[C@H](Cc2ccc(O)cc2)NC(=O)[C@H](NC(=O)[C@@H](N)Cc2ccc(Cl)cc2)CSSC[C@@H](C(=O)N[C@H](Cc2ccc(O)cc2)C(N)=O)NC1=O
B7: Compound 58: CH3O2C(CH2)2(CO)-Cpa-cyclo[D-Cys-Tyr-D-Phe(4-carbamoyl)-Lys(Nε-Me)-Thr-Cys]-D-Tyr-NH2 (peptide)
peptide: {CH3O2C(CH2)2(CO)}-[Phe(4-Cl)][dC]Y[dPhe(4-CONH2)]K(Me)TC[dY]-NH2
modifications: disulfide 2-7
B8: Compound 75: H-Cpa-[DCys-NMeTyr-DPhe(4-carbamoyl)-Lys-NMeThr-Cys]-DTyr-NH2 (peptide)
peptide: XXXXKXCX
HELM: PEPTIDE1{[N[C@@H](Cc1ccc(Cl)cc1)C(=O)[*:2]].[dC].[meY].[NC(=O)c1ccc(C[C@@H](N[*:1])C(=O)[*:2])cc1].K.[meT].C.[dY].[am]}$PEPTIDE1,PEPTIDE1,2:R3-7:R3$$$V2.0
SMILES: C[C@@H](O)[C@H]1C(=O)N[C@H](C(=O)N[C@H](Cc2ccc(O)cc2)C(N)=O)CSSC[C@@H](NC(=O)[C@@H](N)Cc2ccc(Cl)cc2)C(=O)N(C)[C@@H](Cc2ccc(O)cc2)C(=O)N[C@H](Cc2ccc(C(N)=O)cc2)C(=O)N[C@@H](CCCCN)C(=O)N1C
B9: Compound 57: (Furan-2-carboxy)-Cpa-cyclo[D-Cys-Tyr-D-Phe(4-carbamoyl)-Lys(Nε-Me)-Thr-Cys]-D-Tyr-NH2 (peptide)
peptide: {2‑furoyl}-[Phe(4-Cl)][dC]Y[dPhe(4-CONH2)]K(Me)TC[dY]-NH2
modifications: disulfide 2-7
B10: Compound 73: H-Cpa-[DCys-Tyr-DPhe(4-carbamoyl)-Lys-NMeThr-Cys]-DTyr-NH2 (peptide)
peptide: XXYXKXCX
HELM: PEPTIDE1{[N[C@@H](Cc1ccc(Cl)cc1)C(=O)[*:2]].[dC].Y.[NC(=O)c1ccc(C[C@@H](N[*:1])C(=O)[*:2])cc1].K.[meT].C.[dY].[am]}$PEPTIDE1,PEPTIDE1,2:R3-7:R3$$$V2.0
SMILES: C[C@@H](O)[C@H]1C(=O)N[C@H](C(=O)N[C@H](Cc2ccc(O)cc2)C(N)=O)CSSC[C@@H](NC(=O)[C@@H](N)Cc2ccc(Cl)cc2)C(=O)N[C@@H](Cc2ccc(O)cc2)C(=O)N[C@H](Cc2ccc(C(N)=O)cc2)C(=O)N[C@@H](CCCCN)C(=O)N1C
B11: Compound 60: H-Cpa-cyclo[DDap-Tyr-DPhe(4-CONH2)-Lys-Thr-Cys]-DTyr-NH2 (peptide)
peptide: H-[Phe(4-Cl)][dDap]Y[dPhe(4-CONH2)]KTC[dY]-NH2
modifications: bridge 2-7 via thiocarbamate
B12: Compound 70: H-Cpa-cyclo[DDap-Tyr-Xaa4-Lys-Thr-Asp]-DTyr-NH2 (peptide)
peptide: H-[Phe(4-Cl)][dDap]Y[dPhe(4-phenylureido)]KTD[dY]-NH2
modifications: lactam 2-7; not fully specified; printed as H-Cpa-cyclo[DDap-Tyr-Xaa4-Lys-Thr-Asp]-DTyr-NH2
B13: Compound 69: H-Cpa-cyclo[DDap-Tyr-DPhe(4-CONH2)-Lys-Thr-Asp]-DTyr-NH2 (peptide)
peptide: H-[Phe(4-Cl)][dDap]Y[dPhe(4-CONH2)]KTD[dY]-NH2
modifications: lactam 2-7; not fully specified; printed as H-Cpa-cyclo[DDap-Tyr-DPhe(4-CONH2)-Lys-Thr-Asp]-DTyr-NH2
B14: Compound 74: H-Cpa-[DCys-NMeTyr-DPhe(4-carbamoyl)-Lys-Thr-Cys]-DTyr-NH2 (peptide)
peptide: XXXXKTCX
HELM: PEPTIDE1{[N[C@@H](Cc1ccc(Cl)cc1)C(=O)[*:2]].[dC].[meY].[NC(=O)c1ccc(C[C@@H](N[*:1])C(=O)[*:2])cc1].K.T.C.[dY].[am]}$PEPTIDE1,PEPTIDE1,2:R3-7:R3$$$V2.0
SMILES: C[C@@H](O)[C@@H]1NC(=O)[C@H](CCCCN)NC(=O)[C@@H](Cc2ccc(C(N)=O)cc2)NC(=O)[C@H](Cc2ccc(O)cc2)N(C)C(=O)[C@H](NC(=O)[C@@H](N)Cc2ccc(Cl)cc2)CSSC[C@@H](C(=O)N[C@H](Cc2ccc(O)cc2)C(N)=O)NC1=O
B15: Compound 71: H-Cpa-cyclo[DDap-Tyr-DPhe(4-CONH2)-Lys(Me)-Thr-Asp]-DTyr-NH2 (peptide)
peptide: H-[Phe(4-Cl)][dDap]Y[dPhe(4-CONH2)]K(Me)TD[dY]-NH2
modifications: lactam 2-7; not fully specified; printed as H-Cpa-cyclo[DDap-Tyr-DPhe(4-CONH2)-Lys(Me)-Thr-Asp]-DTyr-NH2
B16: Compound 59: H-Cpa-[DCys-Tyr-DPhe(4-CN)-Lys-Thr-Cys]-DTyr-NH2 (peptide)
peptide: XXYXKTCX
HELM: PEPTIDE1{[N[C@@H](Cc1ccc(Cl)cc1)C(=O)[*:2]].[dC].Y.[N#Cc1ccc(C[C@@H](N[*:1])C(=O)[*:2])cc1].K.T.C.[dY].[am]}$PEPTIDE1,PEPTIDE1,2:R3-7:R3$$$V2.0
SMILES: C[C@@H](O)[C@@H]1NC(=O)[C@H](CCCCN)NC(=O)[C@@H](Cc2ccc(C#N)cc2)NC(=O)[C@H](Cc2ccc(O)cc2)NC(=O)[C@H](NC(=O)[C@@H](N)Cc2ccc(Cl)cc2)CSSC[C@@H](C(=O)N[C@H](Cc2ccc(O)cc2)C(N)=O)NC1=O

target: somatostatin receptor type 2 (SSTR2) (UniProt P30874 1-369); assay: cell-based or functional assay
Sequence (P30874 whole entry): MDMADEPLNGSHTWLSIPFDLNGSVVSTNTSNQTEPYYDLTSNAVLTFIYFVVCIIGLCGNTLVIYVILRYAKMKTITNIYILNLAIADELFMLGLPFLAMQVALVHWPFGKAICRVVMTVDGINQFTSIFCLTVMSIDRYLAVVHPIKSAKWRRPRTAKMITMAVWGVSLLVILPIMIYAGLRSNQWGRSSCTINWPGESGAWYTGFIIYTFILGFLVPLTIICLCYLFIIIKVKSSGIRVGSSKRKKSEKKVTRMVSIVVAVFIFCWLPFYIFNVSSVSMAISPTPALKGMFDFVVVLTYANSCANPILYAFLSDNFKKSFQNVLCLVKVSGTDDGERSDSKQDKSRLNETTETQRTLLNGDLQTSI

Q: B1 was tested. Which “IC50 (PathHunter β-Arrestin, antagonist mode)” value (“IC50” for short) did it give?
A: > 1 µM

Q: How did the “IC50” value turn out when B2 was run?
A: 0.00335 µM

Q: B3 was tested. Which “IC50” value did it give?
A: > 1 µM

Q: How did the “IC50” value turn out when B4 was run?
A: 0.0016 µM

Q: B5 was tested. Which “IC50” value did it give?
A: > 1 µM

Q: For B6, which “IC50” value is on record?
A: 0.00577 µM

Q: Which “IC50” value does the source give for B7 here?
A: 0.00236 µM

Q: B8 was tested. Which “IC50” value did it give?
A: > 1 µM

Q: Which “IC50” value does the source give for B9 here?
A: 0.00365 µM

Q: With B10 as the binder, how does the “IC50” value read?
A: 0.547 µM

Q: With B11 as the binder, how does the “IC50” value read?
A: > 1 µM

Q: For B12, which “IC50” value is on record?
A: > 1 µM

Q: How did the “IC50” value turn out when B13 was run?
A: > 1 µM

Q: For B14, which “IC50” value is on record?
A: 0.159 µM

Q: How did the “IC50” value turn out when B15 was run?
A: 0.0133 µM

Q: With B16 as the binder, how does the “IC50” value read?
A: 0.0391 µM

Source: patent US20190040102A1 (CDRD VENTURES, published 2019)
